Laboratory results taken from US20030088057A1, “PEPTIDE SUBSTRATES PHOSPHORYLATED BY P21-ACTIVAGED PROTEIN KINASE STATEMENT REGARDING FEDERALLY SPONSORED REASEARCH OR DEVELOPMENT” (priority 1998, published 2003).

System: γ-PAK
Test: Phosphorylation of protein substrates by γ-PAK
Format: biochemical, rabbit
Conditions: for 32P incorporated: 2 μg protein substrate, 20 units active γ-PAK, 15 min at 30° C.; for rel rate: relative to histone 2B = 100
Description: D. Phosphorylation Assays. Phosphorylation of protein substrates was carried out in 35 μL reaction mixtures containing 20 mM Tris-HCl, pH 7.4, 10 mM MgCl2, 30 mM 2-mercaptoethanol, 0.2 mM ATP (specific activity =1000 cpm/pmol), 2 μg of protein substrate, and 20 units of active γ-PAK (an enzyme unit is defined as the amount of enzyme that incorporates 1 pmol of phosphate into histone IIAS/ min at 30°. Under these conditions, phosphate incorporation was linear and initial rates of phosphorylation were measured. After incubation at 30° C. for 15 min, reactions were terminated by the addition of 5 μL of 100 mM nonlabeled ATP and sample buffer for gel electrophoresis [Hathaway, G. M., et al., Methods Enzymol., 60:495-511 (1979)]. Reaction mixtures were subjected to SDS-PAGE on 15% polyacrylamide gels followed by autoradiography. Phosphorylation was quantified by excising the protein band and counting the incorporated ^32P in a liquid scintillation counter. The specific activity of γ-PAK was 400 pmol min^−1 μg^−1 as reported previously using 0.2 mM ATP and 1 mg/mL mixed histone as substrate [Rooney, R. D., et al., (1996), supra].
A number of proteins were examined as substrates, and their relative rates of phosphorylation were compared (Table 6).

Sequence of γ-PAK (Q29502 249-524 limits assumed): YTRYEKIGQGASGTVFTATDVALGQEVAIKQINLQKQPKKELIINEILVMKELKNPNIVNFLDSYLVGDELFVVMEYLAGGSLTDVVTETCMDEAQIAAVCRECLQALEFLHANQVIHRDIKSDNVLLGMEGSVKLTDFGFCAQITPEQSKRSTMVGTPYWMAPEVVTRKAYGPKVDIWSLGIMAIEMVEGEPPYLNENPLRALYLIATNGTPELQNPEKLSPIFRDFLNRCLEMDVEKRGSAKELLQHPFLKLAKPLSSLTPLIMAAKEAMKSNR

B1: prolactin: rat prolactin (protein)
chain: LPVCSGGDCQTPLPELFDRVVMLSHYIHTLYTDMFIEFDKQYVQDREFIAKAINDCPTSSLATPEDKEQAQKVPPEVLLNLILSLVHSWNDPLFQLITGLGGIHEAPDAIISRAKEIEEQNKRLLEGIEKIISQAYPEAKGNEIYLVWSQLPSLQGVDEESKDLAFYNNIRCLRRDSHKVDNYLKFLRCQIVHKNNC
32P incorporated: 1.8 pmol | rel rate: 17%

B2: myelin basic protein: bovine myelin basic protein, purchased from Sigma (protein)
chain: AAQKRPSQRSKYLASASTMDHARHGFLPRHRDTGILDSLGRFFGSDRGAPKRGSGKDGHHAARTTHYGSLPQKAQGHRPQDENPVVHFFKNIVTPRTPPPSQGKGRGLSLSRFSWGAEGQKPGFGYGGRASDYKSAHKGLKGHDAQGTLSKIFKLGGRDSRSGSPMARR
32P incorporated: 4.2 pmol | rel rate: 37%
